Biological target: T1, T-box 5 (TBX5) (Homo sapiens, UniProt Q99593 1-518)
T1 sequence: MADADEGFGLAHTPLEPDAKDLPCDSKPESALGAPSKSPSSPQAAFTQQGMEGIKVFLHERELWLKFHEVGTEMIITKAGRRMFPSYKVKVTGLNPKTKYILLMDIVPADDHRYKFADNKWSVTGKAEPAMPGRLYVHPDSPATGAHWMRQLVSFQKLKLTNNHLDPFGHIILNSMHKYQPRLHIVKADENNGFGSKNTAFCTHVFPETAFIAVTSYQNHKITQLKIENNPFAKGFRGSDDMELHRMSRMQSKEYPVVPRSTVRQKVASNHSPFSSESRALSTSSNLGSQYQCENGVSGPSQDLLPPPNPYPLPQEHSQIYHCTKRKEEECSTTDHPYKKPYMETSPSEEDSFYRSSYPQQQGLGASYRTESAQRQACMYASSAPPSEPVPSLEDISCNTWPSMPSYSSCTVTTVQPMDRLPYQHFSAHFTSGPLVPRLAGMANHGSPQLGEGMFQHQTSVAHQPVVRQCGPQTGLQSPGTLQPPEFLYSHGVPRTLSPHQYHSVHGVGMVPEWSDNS
Assay: EMSA

B1: CAGA (rs116461237 G>A) (dsDNA)
DNA 1: GCCCACCTCGGCCTCCCAAAGTTCTAGGATTACAGATGTGAGCTACC
DNA 2: GGTAGCTCACATCTGTAATCCTAGAACTTTGGGAGGCCGAGGTGGGGC
B1: no binding.

From PMC6817700
